Patent publication US20220098315A1 (Novartis, published 2022)

How the values were obtained:
[1] = target: recombinant human CD40 (human) (UniProt P25942); experiment: SPR (Biacore T100), antibody captured on Protein A, CD40 antigen as analyte, 25 C, 1:1 model
[2] = target: human CD40 on cells (human, UniProt P25942 21-277); experiment: cell-based or functional assay
Sequence of human CD40 on cells (P25942 21-277 limits assumed): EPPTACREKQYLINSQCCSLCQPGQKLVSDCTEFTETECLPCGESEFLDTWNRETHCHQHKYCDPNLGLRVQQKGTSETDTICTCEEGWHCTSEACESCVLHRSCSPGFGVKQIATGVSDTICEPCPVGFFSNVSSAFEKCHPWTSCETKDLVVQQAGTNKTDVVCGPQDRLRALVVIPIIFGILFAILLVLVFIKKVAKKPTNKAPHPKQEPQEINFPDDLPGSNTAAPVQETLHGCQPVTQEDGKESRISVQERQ

Sequence of recombinant human CD40 (human) (P25942 21-193 limits assumed): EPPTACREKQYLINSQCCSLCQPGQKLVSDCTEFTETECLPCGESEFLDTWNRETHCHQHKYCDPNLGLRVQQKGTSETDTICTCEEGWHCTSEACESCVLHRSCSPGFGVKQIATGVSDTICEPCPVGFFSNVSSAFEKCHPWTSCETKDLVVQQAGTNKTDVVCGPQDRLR

| Molecule | Kd [1] | koff [1] | kon [1] | IC50, rCD154-induced proliferation of human PBMCs [2] |
| --- | --- | --- | --- | --- |
| HCD122 (antibody) | 0.467 nM | 0.000126 s⁻¹ | 284000 M⁻¹ s⁻¹ |  |
| CFZ533 (antibody, human IgG1, kappa, N297A, V domains shown) VH: QVQLVESGGGVVQPGRSLRLSCAASGFTFSSYGMHWVRQAPGKGLEWVAVISYEESNRYHADSVKGRFTISRDNSKITLYLQMNSLRTEDTAVYYCARDGGIAAPGPDYWGQGTLVTVSS VL: DIVMTQSPLSLTVTPGEPASISCRSSQSLLYSNGYNYLDWYLQKPGQSPQVLISLGSNRASGVPDRFSGSGSGTDFTLKISRVEAEDVGVYYCMQARQTPFTFGPGTKVDIRR |  |  |  | 0.12 nM |
